Measured values taken from publication PMC8999913.

Target: VAP-A (VAMP-associated protein A) (UniProt Q9P0L0)
Test: anti-GFP co-IP after DSP crosslinking, VAP-A blot
Details: reference: WT, sorbitol-treated; sites S315

CERT (ceramide transport protein) (from UniProt Q9Y5P4) S315A, sorbitol-treated
binding against the reference: weaker
